{"source": "paper PMC7668070", "about": "(2020)", "binders": {"B1": {"name": "HCoV-NL63 spike RBD (domain or fragment)", "chain": "QHTDINFTATASFGGSCYVCKPHQVNISLNGNTSVCVRTSHFSIRYIYNRVKSGSPGDSSWHIYLKSGTCPFSFSKLNNFQKFKTICFSTVEVPGSCNFPLEATWHYTSYTIVGALYVTWSEGNSITGVPYPVSGI"}}, "molecular_target": "WT ACE2(740)-Fc (human, UniProt Q9BYF1 18-740)", "experiment": "BLI", "data": [{"binder": "B1", "values": [{"measurement": "Kd", "result": 22, "unit": "nM"}]}]}
